# Measured values published in paper PMC7885793 (Biochemistry, 2019).
# T1: PLCβ3-Δ892 (residues 10–892) (Homo sapiens, UniProt Q01970 10-892)
# T1 sequence (looked up): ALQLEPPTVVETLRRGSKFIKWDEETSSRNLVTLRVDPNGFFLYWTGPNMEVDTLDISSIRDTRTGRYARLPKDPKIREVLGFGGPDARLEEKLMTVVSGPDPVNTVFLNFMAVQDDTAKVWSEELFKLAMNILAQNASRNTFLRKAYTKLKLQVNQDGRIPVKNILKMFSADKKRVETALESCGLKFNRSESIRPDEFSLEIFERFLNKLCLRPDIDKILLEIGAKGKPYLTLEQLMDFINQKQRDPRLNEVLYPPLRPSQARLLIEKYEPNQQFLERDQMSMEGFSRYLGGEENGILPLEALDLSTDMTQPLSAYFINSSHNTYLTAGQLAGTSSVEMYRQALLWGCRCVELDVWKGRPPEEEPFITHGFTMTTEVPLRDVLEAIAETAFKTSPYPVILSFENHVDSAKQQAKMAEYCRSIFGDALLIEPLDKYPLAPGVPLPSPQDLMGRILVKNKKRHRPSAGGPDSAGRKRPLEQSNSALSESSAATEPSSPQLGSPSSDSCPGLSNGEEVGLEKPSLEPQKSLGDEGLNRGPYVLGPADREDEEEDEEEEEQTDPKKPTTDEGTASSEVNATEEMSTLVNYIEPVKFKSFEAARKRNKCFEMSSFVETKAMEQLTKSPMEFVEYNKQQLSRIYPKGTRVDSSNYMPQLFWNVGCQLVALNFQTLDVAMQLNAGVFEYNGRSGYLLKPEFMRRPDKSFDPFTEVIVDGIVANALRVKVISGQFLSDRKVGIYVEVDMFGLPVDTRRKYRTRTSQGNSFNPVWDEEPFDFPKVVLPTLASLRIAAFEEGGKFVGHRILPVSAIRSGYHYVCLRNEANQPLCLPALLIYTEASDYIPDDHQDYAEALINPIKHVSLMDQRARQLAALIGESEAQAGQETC
# T2: Homo sapiens PLCβ3 (residues 10–1234) (Homo sapiens, UniProt Q01970 10-1234)
# T2 sequence (looked up): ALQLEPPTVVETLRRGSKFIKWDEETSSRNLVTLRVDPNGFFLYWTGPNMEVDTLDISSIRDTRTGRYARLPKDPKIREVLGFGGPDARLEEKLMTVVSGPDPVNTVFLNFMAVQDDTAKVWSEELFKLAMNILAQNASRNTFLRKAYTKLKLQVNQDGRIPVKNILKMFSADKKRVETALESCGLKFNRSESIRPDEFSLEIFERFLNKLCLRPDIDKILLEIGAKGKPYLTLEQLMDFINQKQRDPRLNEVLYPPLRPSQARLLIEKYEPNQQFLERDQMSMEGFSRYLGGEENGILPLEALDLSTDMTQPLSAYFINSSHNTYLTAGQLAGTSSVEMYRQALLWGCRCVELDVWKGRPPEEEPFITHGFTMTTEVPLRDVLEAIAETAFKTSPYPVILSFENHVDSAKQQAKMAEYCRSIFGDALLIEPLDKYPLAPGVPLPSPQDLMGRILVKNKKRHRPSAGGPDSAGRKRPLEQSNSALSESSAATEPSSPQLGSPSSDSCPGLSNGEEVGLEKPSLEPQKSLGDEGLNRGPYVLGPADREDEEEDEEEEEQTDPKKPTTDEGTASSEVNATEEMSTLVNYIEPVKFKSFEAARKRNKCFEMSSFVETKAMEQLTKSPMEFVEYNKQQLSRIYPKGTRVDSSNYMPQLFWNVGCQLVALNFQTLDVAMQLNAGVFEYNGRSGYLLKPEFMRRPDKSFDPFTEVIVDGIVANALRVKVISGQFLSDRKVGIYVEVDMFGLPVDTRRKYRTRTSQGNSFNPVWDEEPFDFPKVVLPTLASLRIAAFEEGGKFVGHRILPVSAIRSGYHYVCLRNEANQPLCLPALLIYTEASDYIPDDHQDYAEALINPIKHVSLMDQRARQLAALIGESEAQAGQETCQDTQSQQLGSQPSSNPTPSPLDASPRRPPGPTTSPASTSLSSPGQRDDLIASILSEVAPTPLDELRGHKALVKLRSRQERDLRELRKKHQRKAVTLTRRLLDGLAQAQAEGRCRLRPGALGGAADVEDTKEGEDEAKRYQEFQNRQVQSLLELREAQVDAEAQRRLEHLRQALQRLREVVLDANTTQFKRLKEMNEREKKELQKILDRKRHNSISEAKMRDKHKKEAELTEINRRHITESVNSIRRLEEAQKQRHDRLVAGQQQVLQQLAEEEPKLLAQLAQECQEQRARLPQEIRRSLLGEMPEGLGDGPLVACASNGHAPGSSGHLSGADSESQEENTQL
# T3: PLCβ3-Δ892 ΔXY2 (Homo sapiens, UniProt Q01970 10-892, ΔXY2 (residues 471–584))
# T3 sequence (looked up): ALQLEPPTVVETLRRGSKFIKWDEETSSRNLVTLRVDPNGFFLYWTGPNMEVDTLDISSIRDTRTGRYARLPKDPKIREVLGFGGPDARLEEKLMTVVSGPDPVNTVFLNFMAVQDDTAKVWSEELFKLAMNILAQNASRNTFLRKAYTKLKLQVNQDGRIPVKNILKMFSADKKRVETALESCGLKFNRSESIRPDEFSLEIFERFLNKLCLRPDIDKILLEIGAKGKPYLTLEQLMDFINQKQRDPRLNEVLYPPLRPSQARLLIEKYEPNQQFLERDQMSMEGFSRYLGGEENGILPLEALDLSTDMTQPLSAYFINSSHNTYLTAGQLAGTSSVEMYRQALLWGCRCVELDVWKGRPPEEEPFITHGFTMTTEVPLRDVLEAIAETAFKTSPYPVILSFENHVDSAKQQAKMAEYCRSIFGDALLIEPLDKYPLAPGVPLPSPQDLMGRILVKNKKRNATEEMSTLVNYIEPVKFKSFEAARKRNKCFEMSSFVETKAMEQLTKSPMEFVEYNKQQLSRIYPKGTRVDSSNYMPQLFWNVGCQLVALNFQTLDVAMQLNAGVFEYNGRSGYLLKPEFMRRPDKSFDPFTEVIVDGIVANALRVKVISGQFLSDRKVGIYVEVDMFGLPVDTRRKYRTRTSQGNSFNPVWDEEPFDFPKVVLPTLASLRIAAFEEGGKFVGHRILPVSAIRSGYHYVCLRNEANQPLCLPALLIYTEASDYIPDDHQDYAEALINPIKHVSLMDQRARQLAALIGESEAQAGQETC
# Tests used:
# Assay in all cases: cell-based or functional assay
# [1] = target: T1, PLCβ3-Δ892 (residues 10–892)
# [2] = target: T2, Homo sapiens PLCβ3 (residues 10–1234)
# PLCβ3-Δ892 ΔXY2 = target: T3, PLCβ3-Δ892 ΔXY2
binder,measurement,setting,value
"Activated Gαq (Gαq·GDP-ALF4^−) (natural protein, murine, UniProt P21279 7-359, looked up) MACCLSEEAKEARRINDEIERQLRRDKRDARRELKLLLLGTGESGKSTFIKQMRIIHGSGYSDEDKRGFTKLVYQNIFTAMQAMIRAMDTLKIPYKYEHNKAHAQLVREVDVEKVSAFENPYVDAIKSLWNDPGIQECYDRRREYQLSDSTKYYLNDLDRVADPSYLPTQQDVLRVRVPTTGIIEYPFDLQSVIFRMVDVGGQRSERRKWIHCFENVTSIMFLVALSEYDQVLVESDNENRMEESKALFRTIITYPWFQNSSVILFLNKKDLLEEKIMYSHLVDYFPEYDGPQRDAQAAREFILKMFVDLNPDSDKIIYSHFTCATDTENIRFVFAAVKDTILQLNLKEYNLV",x-fold maximum activity over basal (complex against the PLCβ3 variant alone),[1],22 x-fold
same,x-fold maximum activity over basal (complex against the PLCβ3 variant alone),[2],8 x-fold
same,x-fold maximum activity over basal (complex against the PLCβ3 variant alone),PLCβ3-Δ892 ΔXY2,3 x-fold
